Measured values reported in patent US20170015742A1 (published 2017).

These binders were tested against recombinant human PDGF-BB (human, UniProt P01127 82-190) (assay: cell-based or functional assay).
Sequence of recombinant human PDGF-BB (P01127 82-190 limits assumed): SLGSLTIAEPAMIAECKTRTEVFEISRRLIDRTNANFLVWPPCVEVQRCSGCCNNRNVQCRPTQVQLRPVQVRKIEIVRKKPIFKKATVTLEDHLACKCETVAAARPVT

Binder | NIH-3T3 hPDGF-BB Potency IC50
CODV004 cross-over DVD-Ig (PR-1565051) (bispecific antibody, human IgG1, kappa, L234A L235A) heavy: not shown light: DIQMTQSPSSLSASVGDRVTITCSASQDISNYLNWYQQKPGKAPKVLIYFTSSLHSGVPSRFSGSGSGTDFTLTISSLQPEDFATYYCQQYSTVPWTFGQGTKVEIKGGGSGGGDFQLTQSPSSLSASVGDRVTITCERSSGDIGDSYVSWYQQKPGKAPKNVIYADDQRPSGVPSRFSGSGSGNSASLTISSLQPEDFATYFCQSYDINIDIVFGQGTKVEIKGGGSGRTVAAPSVFIFPPSDEQLKSGTASVVCLLNNFYPREAKVQWKVDNALQSGNSQESVTEQDSKDSTYSLSSTLTLSKADYEKHKVYACEVTHQGLSSPVTKSFNRGEC | > 5 nM
CODV006 cross-over DVD-Ig (PR-1565084) (bispecific antibody, human IgG1, kappa, L234A L235A) heavy: not shown light: DTQLTQSPSSLSASVGDRVTISCRASESVSTHMHWYQQKPGKAPKLLIYGASNLESGVPSRFSGSGSGTDFTLTISSLQPEDFATYFCQQSWNDPFTFGQGTKVEIKGGGSGGGDFQLTQSPSSLSASVGDRVTITCERSSGDIGDTYVSWYQQKPGKAPKNVIYGNDQRPSGVPSRFSGSGSGNSATLTISSLQPEDFATYFCQSYDSDIDIVFGQGTKVEIKGGGSGRTVAAPSVFIFPPSDEQLKSGTASVVCLLNNFYPREAKVQWKVDNALQSGNSQESVTEQDSKDSTYSLSSTLTLSKADYEKHKVYACEVTHQGLSSPVTKSFNRGEC | > 5 nM
CODV008 cross-over DVD-Ig (PR-1565086) (bispecific antibody, human IgG1, kappa, L234A L235A) heavy: not shown light: DTQLTQSPSSLSASVGDRVTISCRASESVSTHMHWYQQKPGKAPKLLIYGASNLESGVPSRFSGSGSGTDFTLTISSLQPEDFATYFCQQSWNDPFTFGQGTKVEIKGGGSGGGDFQLTQSPSSLSASVGDRVTITCERSSGDIGDSYVSWYQQKPGKAPKNVIYADDQRPSGVPSRFSGSGSGNSASLTISSLQPEDFATYFCQSYDINIDIVFGQGTKVEIKGGGSGRTVAAPSVFIFPPSDEQLKSGTASVVCLLNNFYPREAKVQWKVDNALQSGNSQESVTEQDSKDSTYSLSSTLTLSKADYEKHKVYACEVTHQGLSSPVTKSFNRGEC | > 5 nM
4G8.3-GS(11)-9E8.4 (g) DVD-Ig (PR-1572103) (bispecific antibody, human IgG1, kappa, L234A L235A) heavy: EVQLVQSGSELKKPGASVKVSCKASGYTFTNYGMYWVRQAPGQGLEWMGWINTETGKPTYADDFKGRFVFSLDTSVSTAYLQISSLKAEDTAVYYCARTNYYYRSYIFYFDYWGQGTMVTVSSGGGGSGGGGSEVTLRESGPALVKPTQTLTLTCTFSGFSLSTYGMGVGWIRQPPGKALEWLANIWWDDDKYYNPSLKNRLTISKDTSKNQVVLTMTNMDPVDTATYYCARIESIGTTYSFDYWGQGTMVTVSSASTKGPSVFPLAPSSKSTSGGTAALGCLVKDYFPEPVTVSWNSGALTSGVHTFPAVLQSSGLYSLSSVVTVPSSSLGTQTYICNVNHKPSNTKVDKKVEPKSCDKTHTCPPCPAPEAAGGPSVFLFPPKPKDTLMISRTPEVTCVVVDVSHEDPEVKFNWYVDGVEVHNAKTKPREEQYNSTYRVVSVLTVLHQDWLNGKEYKCKVSNKALPAPIEKTISKAKGQPREPQVYTLPPSREEMTKNQVSLTCLVKGFYPSDIAVEWESNGQPENNYKTTPPVLDSDGSFFLYSKLTVDKSRWQQGNVFSCSVMHEALHNAYTQKSLSLSPGK light: DTVLTQSPATLSLSPGERATLSCRASESVSTHMHWYQQKPGQAPRLLIYGASNLESGVPARFSGSGSGTDFTLTISSLEPEDFAVYFCQQSWNDPFTFGQGTKLEIKRGGSGGGGSGGEFVLTQSPGTLSLSPGERATLSCERSSGDIGDSYVSWYQQKPGQAPRLVIYADDQRPSGIPDRFSGSGSGTDFTLTISRLEPEDFAVYYCQSYDINIDIVFGGGTKVEIKRTVAAPSVFIFPPSDEQLKSGTASVVCLLNNFYPREAKVQWKVDNALQSGNSQESVTEQDSKDSTYSLSSTLTLSKADYEKHKVYACEVTHQGLSSPVTKSFNRGEC | 0.298 nM
4G8.3-LS-9E8.4E DVD-Ig (PR-1575835) (bispecific antibody, human IgG1, kappa, L234A L235A) heavy: EVQLVQSGSELKKPGASVKVSCKASGYTFTNYGMYWVRQAPGQGLEWMGWINTETGKPTYADDFKGRFVFSLDTSVSTAYLQISSLKAEDTAVYYCARTNYYYRSYIFYFDYWGQGTMVTVSSASTKGPSVFPLAPEVTLRESGPALVKPTQTLTLTCTFSGFSLSTYGMGVGWIRQPPGKALEWLANIWWDDDKYYNPSLKNRLTISKDTSKNQVVLTMTNMDPVDTATYYCARIESIGTTYSFDYWGQGTMVTVSSASTKGPSVFPLAPSSKSTSGGTAALGCLVKDYFPEPVTVSWNSGALTSGVHTFPAVLQSSGLYSLSSVVTVPSSSLGTQTYICNVNHKPSNTKVDKKVEPKSCDKTHTCPPCPAPEAAGGPSVFLFPPKPKDTLMISRTPEVTCVVVDVSHEDPEVKFNWYVDGVEVHNAKTKPREEQYNSTYRVVSVLTVLHQDWLNGKEYKCKVSNKALPAPIEKTISKAKGQPREPQVYTLPPSREEMTKNQVSLTCLVKGFYPSDIAVEWESNGQPENNYKTTPPVLDSDGSFFLYSKLTVDKSRWQQGNVFSCSVMHEALHNAYTQKSLSLSPGK light: DTVLTQSPATLSLSPGERATLSCRASESVSTHMHWYQQKPGQAPRLLIYGASNLESGVPARFSGSGSGTDFTLTISSLEPEDFAVYFCQQSWNDPFTFGQGTKLEIKRTVAAPEFVLTQSPGTLSLSPGERATLSCERSSGDIGESYVSWYQQKPGQAPRLVIYADDQRPSGIPDRFSGSGSGTDFTLTISRLEPEDFAVYYCQSYDINIDIVFGGGTKVEIKRTVAAPSVFIFPPSDEQLKSGTASVVCLLNNFYPREAKVQWKVDNALQSGNSQESVTEQDSKDSTYSLSSTLTLSKADYEKHKVYACEVTHQGLSSPVTKSFNRGEC | 0.176 nM

Further lines, results first:

NIH-3T3 hPDGF-BB Potency IC50 | Binder
> 5 nM | CODV003 cross-over DVD-Ig (PR-1565044) (bispecific antibody, human IgG1, kappa, L234A L235A) heavy: not shown light: DFQLTQSPSSLSASVGDRVTITCERSSGDIGDSYVSWYQQKPGKAPKNVIYADDQRPSGVPSRFSGSGSGNSASLTISSLQPEDFATYFCQSYDINIDIVFGQGTKVEIKGGGSGGGDIQMTQSPSSLSASVGDRVTITCSASQDISNYLNWYQQKPGKAPKVLIYFTSSLHSGVPSRFSGSGSGTDFTLTISSLQPEDFATYYCQQYSTVPWTFGQGTKVEIKGGGSGRTVAAPSVFIFPPSDEQLKSGTASVVCLLNNFYPREAKVQWKVDNALQSGNSQESVTEQDSKDSTYSLSSTLTLSKADYEKHKVYACEVTHQGLSSPVTKSFNRGEC
> 5 nM | CODV005 cross-over DVD-Ig (PR-1565083) (bispecific antibody, human IgG1, kappa, L234A L235A) heavy: not shown light: DFQLTQSPSSLSASVGDRVTITCERSSGDIGDTYVSWYQQKPGKAPKNVIYGNDQRPSGVPSRFSGSGSGNSATLTISSLQPEDFATYFCQSYDSDIDIVFGQGTKVEIKGGGSGGGDTQLTQSPSSLSASVGDRVTISCRASESVSTHMHWYQQKPGKAPKLLIYGASNLESGVPSRFSGSGSGTDFTLTISSLQPEDFATYFCQQSWNDPFTFGQGTKVEIKGGGSGRTVAAPSVFIFPPSDEQLKSGTASVVCLLNNFYPREAKVQWKVDNALQSGNSQESVTEQDSKDSTYSLSSTLTLSKADYEKHKVYACEVTHQGLSSPVTKSFNRGEC
> 5 nM | CODV007 cross-over DVD-Ig (PR-1565085) (bispecific antibody, human IgG1, kappa, L234A L235A) heavy: not shown light: DFQLTQSPSSLSASVGDRVTITCERSSGDIGDSYVSWYQQKPGKAPKNVIYADDQRPSGVPSRFSGSGSGNSASLTISSLQPEDFATYFCQSYDINIDIVFGQGTKVEIKGGGSGGGDTQLTQSPSSLSASVGDRVTISCRASESVSTHMHWYQQKPGKAPKLLIYGASNLESGVPSRFSGSGSGTDFTLTISSLQPEDFATYFCQQSWNDPFTFGQGTKVEIKGGGSGRTVAAPSVFIFPPSDEQLKSGTASVVCLLNNFYPREAKVQWKVDNALQSGNSQESVTEQDSKDSTYSLSSTLTLSKADYEKHKVYACEVTHQGLSSPVTKSFNRGEC
0.095 nM | 4G8.3-GS(noR)-9E8.4 (g) DVD-Ig (PR-1572104) (bispecific antibody, human IgG1, kappa, L234A L235A) heavy: EVQLVQSGSELKKPGASVKVSCKASGYTFTNYGMYWVRQAPGQGLEWMGWINTETGKPTYADDFKGRFVFSLDTSVSTAYLQISSLKAEDTAVYYCARTNYYYRSYIFYFDYWGQGTMVTVSSGGGGSGGGGSEVTLRESGPALVKPTQTLTLTCTFSGFSLSTYGMGVGWIRQPPGKALEWLANIWWDDDKYYNPSLKNRLTISKDTSKNQVVLTMTNMDPVDTATYYCARIESIGTTYSFDYWGQGTMVTVSSASTKGPSVFPLAPSSKSTSGGTAALGCLVKDYFPEPVTVSWNSGALTSGVHTFPAVLQSSGLYSLSSVVTVPSSSLGTQTYICNVNHKPSNTKVDKKVEPKSCDKTHTCPPCPAPEAAGGPSVFLFPPKPKDTLMISRTPEVTCVVVDVSHEDPEVKFNWYVDGVEVHNAKTKPREEQYNSTYRVVSVLTVLHQDWLNGKEYKCKVSNKALPAPIEKTISKAKGQPREPQVYTLPPSREEMTKNQVSLTCLVKGFYPSDIAVEWESNGQPENNYKTTPPVLDSDGSFFLYSKLTVDKSRWQQGNVFSCSVMHEALHNAYTQKSLSLSPGK light: DTVLTQSPATLSLSPGERATLSCRASESVSTHMHWYQQKPGQAPRLLIYGASNLESGVPARFSGSGSGTDFTLTISSLEPEDFAVYFCQQSWNDPFTFGQGTKLEIKGGSGGGGSGGEFVLTQSPGTLSLSPGERATLSCERSSGDIGDSYVSWYQQKPGQAPRLVIYADDQRPSGIPDRFSGSGSGTDFTLTISRLEPEDFAVYYCQSYDINIDIVFGGGTKVEIKRTVAAPSVFIFPPSDEQLKSGTASVVCLLNNFYPREAKVQWKVDNALQSGNSQESVTEQDSKDSTYSLSSTLTLSKADYEKHKVYACEVTHQGLSSPVTKSFNRGEC
0.109 nM | 4G8.3-LS-9E8.4 (g) DVD-Ig (PR-1572106) (bispecific antibody, human IgG1, kappa, L234A L235A) heavy: EVQLVQSGSELKKPGASVKVSCKASGYTFTNYGMYWVRQAPGQGLEWMGWINTETGKPTYADDFKGRFVFSLDTSVSTAYLQISSLKAEDTAVYYCARTNYYYRSYIFYFDYWGQGTMVTVSSASTKGPSVFPLAPEVTLRESGPALVKPTQTLTLTCTFSGFSLSTYGMGVGWIRQPPGKALEWLANIWWDDDKYYNPSLKNRLTISKDTSKNQVVLTMTNMDPVDTATYYCARIESIGTTYSFDYWGQGTMVTVSSASTKGPSVFPLAPSSKSTSGGTAALGCLVKDYFPEPVTVSWNSGALTSGVHTFPAVLQSSGLYSLSSVVTVPSSSLGTQTYICNVNHKPSNTKVDKKVEPKSCDKTHTCPPCPAPEAAGGPSVFLFPPKPKDTLMISRTPEVTCVVVDVSHEDPEVKFNWYVDGVEVHNAKTKPREEQYNSTYRVVSVLTVLHQDWLNGKEYKCKVSNKALPAPIEKTISKAKGQPREPQVYTLPPSREEMTKNQVSLTCLVKGFYPSDIAVEWESNGQPENNYKTTPPVLDSDGSFFLYSKLTVDKSRWQQGNVFSCSVMHEALHNAYTQKSLSLSPGK light: DTVLTQSPATLSLSPGERATLSCRASESVSTHMHWYQQKPGQAPRLLIYGASNLESGVPARFSGSGSGTDFTLTISSLEPEDFAVYFCQQSWNDPFTFGQGTKLEIKRTVAAPEFVLTQSPGTLSLSPGERATLSCERSSGDIGDSYVSWYQQKPGQAPRLVIYADDQRPSGIPDRFSGSGSGTDFTLTISRLEPEDFAVYYCQSYDINIDIVFGGGTKVEIKRTVAAPSVFIFPPSDEQLKSGTASVVCLLNNFYPREAKVQWKVDNALQSGNSQESVTEQDSKDSTYSLSSTLTLSKADYEKHKVYACEVTHQGLSSPVTKSFNRGEC
